Experiment: yeast display, Sf9 membrane polyspecificity reagent, FACS + sequencing; frameworks hold sequencing errors
Outline: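 Synthetic nanobody libraries on Saccharomyces cerevisiae BJ5465 were galactose-induced for 36–48 hours, stained 1 hour at 4 °C with 10% biotinylated, detergent-solubilized Sf9 membrane reagent and enriched on streptavidin microbeads. FACS then separated cells into low and high (top ~1%) gates by anti-HA (expression) and streptavidin (reagent binding) fluorescence. Genes were colony-PCR amplified, MiSeq 2 × 250 sequenced and CDR-length filtered. A clone's polyreactivity label is that of its gate of origin.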

| Sequence | polyreactivity (PSR sort gate) |
| --- | --- |
| QVQLVESGGGLVQAGGSLRLSCAASGITFRRYAMGWYRKAPGTERELVATITRGDNTYYADSVKGRFTISRDNAKNTVYLQMNSLKPEDTAVYYCAKGWPTDDYDYWGQGTQVTVSS | high polyreactivity |
| QVQLVESGGGLVQAGGSLRLSCAASGITFRVNAMGWYRQAPGKERELVAAISQIGGSTYYADSVKGRFTISRDNAKNTVYLQMNSLKPEDTAVYYCAARRRWYNYNYWGQGTQVTVSS | high polyreactivity |
| QVQLVESGGGLVQAGGSLRLSCAASGITFRWNAMGWYRPAPGKERELVAAITTRGGGTYYADSVKGRFTISRDNAKNTVYLQMNSMKPEDTAVYYCAAKKSRYPYNYWGQGTQVTVSS | high polyreactivity |
| QVQLVESGGGLVQAGGSLRLSCAASGITFRYYAMGWYRPAPGKERELVAALTSGGSTNYADSVKGRFTISRDNAKNTVYLQMNSLIPEDTAVYYCAATSYYRTNYGLVFLYRRNYWGQGTQVTVSS | high polyreactivity |
| QVQLVESGGGLVQAGGSLRLSCAASGITFRYYAMGWYSQAPGKERELVAAITRGGRTNYADSVKGRYTISRDNAKNTVYLQMNSLKPEDTAVYYCAAGRVGRLSEYNYWGQGTQVTVSS | high polyreactivity |
| QVQLVESGGGLVQAGGSLRLSCAASGITFRYYVMGWYRQAPGKERELVAAISWSGGSTYYADSVKGRFTISRDNAKNTVYLQMNCLKPEDTAVYYCAAYKRRSNGRYWTYDYWGQGTQVTVSS | high polyreactivity |
| QVQLVESGGGLVQAGGSLRLSCAASGITFSEYAMGWYRQAPGKERELVAAITSGGNTYYADSVKGRFTISRDNAKNTVYLQMNSLKPEDTAVYYCAATFSSAFAYYYWGQGTQVTVSS | low polyreactivity |
| QVQLVESGGGLVQAGGSLRLSCAASGITFSFYAMGWYRQAPGKERELVATIDSGGSTNYADSVKGRFTISRDNAKNTVYLQMNSLKPEDTAVYYCAADGVWYYYDMDYWGQGTQVTVSS | low polyreactivity |
| QVQLVESGGGLVQAGGSLRLSCAASGITFSGYGMGWYRQAPGKERELVAAISRSGGSTYYADSVKGRFTISRDNAKNTVYLQMNSLKPEDTAVYYCATASRTSRTGWAGYYWGQGTQVTVSS | high polyreactivity |
| QVQLVESGGGLVQAGGSLRLSCAASGITFSHNAMGWYRQAPGKERELVAAITRSGGSTYYADSVKGRFTISRDNAKNTVYLQMNCLKPEDTAVYYCATEDYYRQYGYWSLSRMDHWGQGTQVTVSS | low polyreactivity |
| QVQLVESGGGLVQAGGSLRLSCAASGITFSHNAMGWYRQAPGKERELVAAITRSGRSTYYADSVKGRFTISRDNAKNTVYLQMNSLKPEDTAVYYCSTDNHQRRAGSGYWGQGTQVTVSS | low polyreactivity |
| QVQLVESGGGLVQAGGSLRLSCAASGITFSKYAMGWYRQAPGKERELVAAITTSGVSTYYADSVKGRFTISRDNAKNTVYLQMNSLKPEDTAVYYCATELGWGGFYKYGHASQFDYWGQGTQVTVSS | low polyreactivity |
| QVQLVESGGGLVQAGGSLRLSCAASGITFSPYTMGWYRQAPGKERELVAAINSGGRTNYADSVKGRFTISRDNAKNTVYLQMNSLKPEDTAVYYCTKRGHPARLGYYYWGQGTQVTVSS | low polyreactivity |
| QVQLVESGGGLVQAGGSLRLSCAASGITFSPYTRGWYRQATGKERELVAAINDGAITYYADSVKGRFTISRDNAKNTVYLQMNSQKPEDTAVYYCAAAAWGTDPFSTDYASYDYWGQVTQVTVSS | low polyreactivity |
| QVQLVESGGGLVQAGGSLRLSCAASGITFSQYAMGWYRPAPGKERELVAAISWSGVRTYYADSVKGRFTISRDNSKNTVYLQMNSLKPEDTAVYYCAAVPVYYGYDYWGQGTQVTVSS | high polyreactivity |
| QVQLVESGGGLVQAGGSLRLSCAASGITFSRNAMGWSRQARGKERELVAAISRGGSTNYADSVKGRFTISRDNAKNTVYLQMNSLKPEDTAVYYCNAPGYLSWRFYGVKRNYWGQGTQVTVSS | high polyreactivity |
